First the molecules themselves.
T1: TNFR1 (Homo sapiens, UniProt P19438)
T1 chain: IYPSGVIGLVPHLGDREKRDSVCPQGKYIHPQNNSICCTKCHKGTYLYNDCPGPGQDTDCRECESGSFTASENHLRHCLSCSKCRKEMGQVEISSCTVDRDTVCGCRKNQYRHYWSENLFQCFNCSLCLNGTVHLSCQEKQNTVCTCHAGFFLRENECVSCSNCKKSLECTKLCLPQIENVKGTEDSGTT

B1: L94H (designed binder)
chain: SMEEEVEKAAKEYEKKKKEAIEKHLEKLKAKDKEAAERFLKELEEAAKEYAKDEAKTMSEEEAKRRAKKYKEKVLLSELSEEEQKEIKEAEEKHVRTILKYVEEAAK
B2: Y101A (designed binder)
chain: SMEEEVEKAAKEYEKKKKEAIEKHLEKLKAKDKEAAERFLKELEEAAKEYAKDEAKTMSEEEAKRRAKKYKEKVLLSELSEEEQKEIKEAEEKLVRTILKAVEEAAK
B3: M2P (designed binder)
chain: SPEEEVEKAAKEYEKKKKEAIEKHLEKLKAKDKEAAERFLKELEEAAKEYAKDEAKTMSEEEAKRRAKKYKEKVLLSELSEEEQKEIKEAEEKLVRTILKYVEEAAK
B4: E12G (designed binder)
chain: SMEEEVEKAAKGYEKKKKEAIEKHLEKLKAKDKEAAERFLKELEEAAKEYAKDEAKTMSEEEAKRRAKKYKEKVLLSELSEEEQKEIKEAEEKLVRTILKYVEEAAK
B5: S77N (designed binder)
chain: SMEEEVEKAAKEYEKKKKEAIEKHLEKLKAKDKEAAERFLKELEEAAKEYAKDEAKTMSEEEAKRRAKKYKEKVLLNELSEEEQKEIKEAEEKLVRTILKYVEEAAK
B6: V102I (designed binder)
chain: SMEEEVEKAAKEYEKKKKEAIEKHLEKLKAKDKEAAERFLKELEEAAKEYAKDEAKTMSEEEAKRRAKKYKEKVLLSELSEEEQKEIKEAEEKLVRTILKYIEEAAK
B7: A46T (designed binder)
chain: SMEEEVEKAAKEYEKKKKEAIEKHLEKLKAKDKEAAERFLKELEETAKEYAKDEAKTMSEEEAKRRAKKYKEKVLLSELSEEEQKEIKEAEEKLVRTILKYVEEAAK
B8: K68R (designed binder)
chain: SMEEEVEKAAKEYEKKKKEAIEKHLEKLKAKDKEAAERFLKELEEAAKEYAKDEAKTMSEEEAKRRARKYKEKVLLSELSEEEQKEIKEAEEKLVRTILKYVEEAAK
B9: V6F (designed binder)
chain: SMEEEFEKAAKEYEKKKKEAIEKHLEKLKAKDKEAAERFLKELEEAAKEYAKDEAKTMSEEEAKRRAKKYKEKVLLSELSEEEQKEIKEAEEKLVRTILKYVEEAAK
B10: T57Y (designed binder)
chain: SMEEEVEKAAKEYEKKKKEAIEKHLEKLKAKDKEAAERFLKELEEAAKEYAKDEAKYMSEEEAKRRAKKYKEKVLLSELSEEEQKEIKEAEEKLVRTILKYVEEAAK
B11: K93M (designed binder)
chain: SMEEEVEKAAKEYEKKKKEAIEKHLEKLKAKDKEAAERFLKELEEAAKEYAKDEAKTMSEEEAKRRAKKYKEKVLLSELSEEEQKEIKEAEEMLVRTILKYVEEAAK
B12: E42N (designed binder)
chain: SMEEEVEKAAKEYEKKKKEAIEKHLEKLKAKDKEAAERFLKNLEEAAKEYAKDEAKTMSEEEAKRRAKKYKEKVLLSELSEEEQKEIKEAEEKLVRTILKYVEEAAK
B13: E82F (designed binder)
chain: SMEEEVEKAAKEYEKKKKEAIEKHLEKLKAKDKEAAERFLKELEEAAKEYAKDEAKTMSEEEAKRRAKKYKEKVLLSELSEFEQKEIKEAEEKLVRTILKYVEEAAK

This test addresses T1, TNFR1. Kind of test: yeast display SC50.
For the molecule B1, the “apparent Kd (screen)” value is 0.446 nM.

On to B2, for which the “apparent Kd (screen)” value was 0.405 nM. The value for B3 was 0.49 nM; that for B4 was 0.49 nM; that for B5 was 3 nM. The value for B6 was 2.73 nM; that for B7 was 2.73 nM; that for B8 was 0.718 nM. The value for B9 was 2.25 nM.

With B10, the “apparent Kd (screen)” value came to 0.0802 nM. The value for B11 was 0.718 nM. As for B12, the “apparent Kd (screen)” value was 7.07 nM. For B13, the “apparent Kd (screen)” value is 0.539 nM.

Values taken from paper PMC12416549 (2024).
